From US7811569 (INSTITUT PASTEUR, dated 2010) come the findings set out here.

T1: synthetic peptide MSP-3211-237 (Plasmodium falciparum)
T1 construct: also called MSP-3b
T1 peptide: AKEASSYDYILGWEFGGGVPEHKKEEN

T2: synthetic peptide MSP-3190-217 (Plasmodium falciparum)
T2 peptide: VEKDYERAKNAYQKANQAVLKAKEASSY

B1: RAM3 Fab-ΔpIII (Fab, V domains shown)
VH: QVQLVQSGGGVVQPGRSLRLSCAASGFTFSSYAMHWVRQAPGKGLEWVAVISYDGSNKYYADSVKGRFTISRDNSKNTLYLQMNSLRAEDKAVYYCARDSGGIAARLGGYFDLWGRGTTVTVSS
VL: DIRMTQSPSFLSASVGDRVTITCRASQGISSYLAWYQQKPGKAPKLLIYAASTLQSGVPSRFSGSGSGTEFTLTISSLQPEDFATYYCQQGPTFGGGTKVEIKR
notes: Human Fab made in E. coli from pFAB73H; VH is joined to human gamma 1 CH1 (residues 118 to 230), then a spacer with a trypsin site and truncated f1 phage pIII (ΔpIII); The light chain is VK plus human kappa constant domain; also called Fab-ΔpIII RAM3; RAM3 in the Fab-ΔpIII format
B2: RAM2 Fab-ΔpIII (Fab, V domains shown)
VH: QVQLQESGGGLVKPGGSLKLSCAASGFTFSSYGMSWVRQTPDKRLEWVATISSGGSYTYYPDSVKGRFTISRDNAKNTLYLQMSSLKSEDTAMYYCARLYYGYRYYFDYWGQGTMVTVSS
VL: DIQLTQSPSSLSASIGDRVTITCQASQDITNSLNWYQQRPGQAPKLLIYDAFTLKTGVPSRFSGRGSGTSFTIAINSFQAEDIGTYFCQQSHRVPFTFGGGTRVEIKR
notes: Human Fab made in E. coli from pFAB73H; VH is joined to human gamma 1 CH1 (residues 118 to 230), then a spacer with a trypsin site and truncated f1 phage pIII (ΔpIII); The light chain is VK plus human kappa constant domain; also called Fab-ΔpIII RAM2; RAM2 in the Fab-ΔpIII format
B3: RAM2 IgG1 (antibody, V domains shown)
VH: B2 VH
VL: B2 VL
notes: Intact human IgG1 kappa, allotype G1m(a,z), made in CHO cells
B4: recombinant MSP-3194-257 (other)
chain: HERAKNAYQKANQAVLKAKEASSYDYILGWEFGGGVPEHKKEENMLSHLYVSSKDKENISKENE
notes: also called panning antigen
B5: RAM1 Fab-ΔpIII (Fab, V domains shown)
VH: QVQLVQSGGGVVQPGRSLRLSCAASGFTFSSYAMHWVRQAPGKGLEWVAVISYDGSNKYYADSVKGRFTISRDNSKNTLYLQMSSLRAEDTAVYYCVKGASSWSTGTLVTVSS
VL: DIVMMQSPATLSASVGDRVTITCRASQSISSWLAWYQQKPGKAPNLLIYKASSLESGVPSRFSGSGSGTEFTLTISSLQPDDFATYYCQQYKSFPYTFGQGTRLEIKR
notes: Human Fab made in E. coli from pFAB73H; VH is joined to human gamma 1 CH1 (residues 118 to 230 of the H chain), then a spacer with a trypsin cleavage site and truncated f1 phage protein pIII (ΔpIII); The light chain is VK plus human kappa constant domain; also called Fab-ΔpIII RAM1; RAM1 in the Fab-ΔpIII format
B6: RAM1 IgG1 (antibody, V domains shown)
VH: B5 VH
VL: B5 VL
notes: Intact human IgG1 kappa, allotype G1m(a,z), made in CHO cells from pLNOH2 and pLNOK; also called IgG1 anti-MSP3; RAM1 in the IgG1 format

Assay [1] concerns the target T3, native MSP-3 antigen of Plasmodium falciparum clone 3D7 schizonts and merozoites (Plasmodium falciparum).
T3 construct: whole, on cells; The motif 220-230 is also present in MSP-6; also called native malaria antigen; parasite proteins
The experiment in a line: flow cytometry on ethanol-fixed permeabilized schizonts, FITC anti-human Fab. Background: In flow cytometry, cells or beads pass a laser one at a time.
Procedure: The gating was placed to include the majority of the infected cells. The gating was used for the histograms described below.
Parasites were then washed in PBS with 1% BSA, incubated over night with antibody (Fab-ΔpIII or IgG1), washed twice with PBS supplemented with 1% BSA and incubated for 30 minutes with FITC-conjugated goat anti-human Fab (Sigma F5512) diluted 1:25. Cells were analyzed in a Coulter EPICS-2 flow cytometer. Hib-CP specific antibody was used as control in corresponding concentrations.

The assay “recombinant MSP-3194-257” concerns the target B4. The assay is described as follows: direct ELISA, coated recombinant antigen. (An ELISA detects its analyte on a solid surface through an enzyme-linked reagent.)
Assay [2] concerns the target T1, synthetic peptide MSP-3211-237. The experiment in a line: ELISA on synthetic peptides.
Assay [3] has as its target T2, synthetic peptide MSP-3190-217. The experiment in a line: ELISA on synthetic peptides.
In the assay “RAM2 Fab-ΔpIII” the target is B2. The experiment in a line: antigen competition ELISA; soluble antigen 4 nM to 1250 nM against coated MSP-3194-257.

In the case of B1, the “percent of events under the bar M1” value in assay [1] was 4%.

Take B2: the binding result with recombinant MSP-3194-257 is “binds”. In assay [1], the “percent of events under the bar M1” value worked out at 28%.

Regarding B3, the binding result in assay [2] and in assay [3] was “binds” throughout.

As for B4, in the assay with RAM2 Fab-ΔpIII, the binding result was “binds”.

With B5, the “percent of events under the bar M1” value in assay [1] came to 76%.

On to B6, for which the “percent of events under the bar M1” value in assay [1] was found to be 47%.
